Here are results for five variants from FireProtDB (doi:10.1021/bi00358a035).

“And” between values parts separate entries of the source, which are not always exact repeats. Equal values may be shown once.

The chains are these.
B1: Tryptophan synthase alpha chain, P0A877 (parent)
chain: MERYESLFAQLKERKEGAFVPFVTLGDPGIEQSLKIIDTLIEAGADALELGIPFSDPLADGPTIQNATLRAFAAGVTPAQCFEMLALIRQKHPTIPIGLLMYANLVFNKGIDEFYAQCEKVGVDSVLVADVPVEESAPFRQAALRHNVAPIFICPPNADDDLLRQIASYGRGYTYLLSRAGVTGAENRAALPLNHLVAKLKEYNAAPPLQGFGISAPDQVKAAIDAGAAGAISGSAIVKIIEQHINEPEKMLAALKVFVQPMKAATRS

The data set covers variants of B1. The following applies: Escherichia coli (strain K12); pH 7.8; 25 °C; Urea; CD; Potassium phosphate 10 mM; transition: 3; reversible: yes (>90%); structure 1WQ5; whole UniProt chain shown.

Turning to G234D, the “ddG of mutation (higher = less stable)” value was -1.4 kcal/mol and -2 kcal/mol; the denaturant m value is 2.6 kcal/mol/M and 1.8 kcal/mol/M; the “denaturant midpoint (higher = more stable)” value (“denaturant midpoint” below) is 2.78 M and 3.99 M; the unfolding free energy is 7.1 kcal/mol and 7 kcal/mol.

Take G234K: the denaturant m value is 2.3 kcal/mol/M and 1.2 kcal/mol/M; the “denaturant midpoint” value is 2.65 M and 3.81 M; the unfolding free energy is 6.2 kcal/mol and 4.7 kcal/mol.

Take E49M: the “ddG of mutation (higher = less stable)” value was -3.7 kcal/mol and -2 kcal/mol; the denaturant m value is 2.8 kcal/mol/M and 1.4 kcal/mol/M; the “denaturant midpoint” value is 3.33 M and 4.92 M; the unfolding free energy was 9.4 kcal/mol and 7 kcal/mol.

Regarding F22L, the denaturant m value was 3.1 kcal/mol/M and 1.2 kcal/mol/M; the “denaturant midpoint” value was 2.54 M and 3.62 M; the unfolding free energy is 7.9 kcal/mol and 4.2 kcal/mol.

G211E: the denaturant m value is 3 kcal/mol/M and 1.5 kcal/mol/M; the “denaturant midpoint” value was 2.73 M and 3.72 M; the unfolding free energy was 8.1 kcal/mol and 5.4 kcal/mol.
